# Data: paper PMC9462884, “Tensin3 interaction with talin drives the formation of fibronectin-associated fibrillar adhesions” (The Journal of Cell Biology, 2022)
# Target: T1, talin R11 (recombinant wild-type mouse talin1 fragment R11) (mouse, UniProt P26039 1974-2140)
# T1 construct: talin1, mouse, R11 rod domain, residues 1,974–2,140; 15N-labelled for the NMR experiments; also called talin R11 domain
# Experiment: ITC; 80 µM R11 in the cell, 1.2 mM peptide in the syringe; 20 mM sodium phosphate pH 6.5, 50 mM NaCl, 0.5 mM TCEP, 25°C; single-site binding model
# Conditions: both partners purified
# T1 sequence (P26039 1974-2140): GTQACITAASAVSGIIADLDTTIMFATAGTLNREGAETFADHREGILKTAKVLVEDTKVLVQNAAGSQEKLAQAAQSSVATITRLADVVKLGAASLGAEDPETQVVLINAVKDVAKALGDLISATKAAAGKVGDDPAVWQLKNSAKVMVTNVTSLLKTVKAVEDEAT
binder,measurement,value
"TLDIDQSIEQLNRLILELDPT (synthetic peptide; terminal capping not stated. Limits conflict in the text: methods give 692-712 (used here, from the peptide purchase description and close to the predicted helix 690-710), results …) [tensin3 H1 peptide]",Kd,17 µM
same,dH,4.8 kcal/mol
